According to article PMC12990809:

Experiments:
Test in all cases: pulldown
Details in all cases: 20 nM protein, 1.5 uM RNA pool; 20 mM HEPES pH 7.8, 70 mM KCl, 10 mM NaCl, 10% glycerol, 2 mM DTT, 0.1 ug/uL BSA; 30 min, 4 C
[1] = biological target: T1, PF14_0151 (Plasmodium falciparum) (UniProt Q8ILU3)
T1 sequence: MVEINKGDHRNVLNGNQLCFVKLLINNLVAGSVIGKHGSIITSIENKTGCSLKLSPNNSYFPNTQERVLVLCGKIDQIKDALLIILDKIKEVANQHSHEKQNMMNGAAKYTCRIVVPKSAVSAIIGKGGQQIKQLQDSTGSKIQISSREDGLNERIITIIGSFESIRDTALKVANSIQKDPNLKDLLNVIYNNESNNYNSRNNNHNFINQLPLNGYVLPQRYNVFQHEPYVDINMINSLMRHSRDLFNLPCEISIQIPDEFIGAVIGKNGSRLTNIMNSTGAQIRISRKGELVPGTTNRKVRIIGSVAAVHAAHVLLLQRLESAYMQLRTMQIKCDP

[2] = biological target: T2, rbm14 (Xenopus tropicalis) (UniProt A0A8J0QJ94)
T2 sequence: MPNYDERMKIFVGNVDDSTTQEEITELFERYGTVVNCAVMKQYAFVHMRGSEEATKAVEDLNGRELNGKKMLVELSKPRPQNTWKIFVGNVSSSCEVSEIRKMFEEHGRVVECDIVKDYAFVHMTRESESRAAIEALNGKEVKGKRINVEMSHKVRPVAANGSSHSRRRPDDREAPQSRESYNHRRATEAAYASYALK

[3] = biological target: T3, grld-1 (Caenorhabditis elegans) (UniProt H2KYB8)
T3 sequence: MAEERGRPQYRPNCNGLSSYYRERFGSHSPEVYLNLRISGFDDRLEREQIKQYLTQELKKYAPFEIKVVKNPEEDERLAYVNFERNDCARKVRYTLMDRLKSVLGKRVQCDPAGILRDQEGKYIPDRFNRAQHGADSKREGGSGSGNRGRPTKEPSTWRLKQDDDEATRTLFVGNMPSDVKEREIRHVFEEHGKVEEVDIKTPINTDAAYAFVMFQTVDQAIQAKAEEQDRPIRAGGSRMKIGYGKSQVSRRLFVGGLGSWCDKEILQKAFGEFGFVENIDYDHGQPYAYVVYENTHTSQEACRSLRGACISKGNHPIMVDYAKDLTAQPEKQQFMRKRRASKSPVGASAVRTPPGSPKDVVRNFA

[4] = biological target: T4, rsp-3 (Caenorhabditis elegans) (UniProt Q9NEW6)
T4 sequence: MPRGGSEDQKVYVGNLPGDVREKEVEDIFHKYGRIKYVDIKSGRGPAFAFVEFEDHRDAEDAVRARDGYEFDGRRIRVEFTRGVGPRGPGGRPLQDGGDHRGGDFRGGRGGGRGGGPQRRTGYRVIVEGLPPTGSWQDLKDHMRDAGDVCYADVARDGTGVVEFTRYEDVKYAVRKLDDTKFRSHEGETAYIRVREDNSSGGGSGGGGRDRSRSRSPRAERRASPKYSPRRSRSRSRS

[5] = biological target: T5, CG15440 (Drosophila melanogaster) (UniProt Q7KU43)
T5 sequence: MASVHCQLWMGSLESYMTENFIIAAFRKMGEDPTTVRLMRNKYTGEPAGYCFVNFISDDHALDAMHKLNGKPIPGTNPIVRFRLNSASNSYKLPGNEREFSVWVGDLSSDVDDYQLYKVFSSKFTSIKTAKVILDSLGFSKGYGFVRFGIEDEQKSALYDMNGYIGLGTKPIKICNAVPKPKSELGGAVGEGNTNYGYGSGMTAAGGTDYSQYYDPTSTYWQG

PRR3 (Homo sapiens) = biological target: T6, PRR3 (Homo sapiens) (UniProt P79522)
T6 sequence: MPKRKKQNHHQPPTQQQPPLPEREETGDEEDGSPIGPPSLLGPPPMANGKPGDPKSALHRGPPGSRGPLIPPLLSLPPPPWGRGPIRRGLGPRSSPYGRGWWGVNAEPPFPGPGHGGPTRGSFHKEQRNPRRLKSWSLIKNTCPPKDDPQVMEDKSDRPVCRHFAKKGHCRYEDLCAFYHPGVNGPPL

[6] = biological target: T7, rnp-3 (Caenorhabditis elegans) (UniProt Q21323)
T7 sequence: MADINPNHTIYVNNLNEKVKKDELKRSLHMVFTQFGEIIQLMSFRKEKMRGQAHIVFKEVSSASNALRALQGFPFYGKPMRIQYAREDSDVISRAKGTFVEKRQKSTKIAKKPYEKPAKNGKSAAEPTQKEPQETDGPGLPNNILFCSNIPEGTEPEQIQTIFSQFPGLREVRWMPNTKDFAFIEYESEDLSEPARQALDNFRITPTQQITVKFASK

[7] = biological target: T8, pabpc1A (Dictyostelium discoideum) (UniProt Q54BM2)
T8 sequence: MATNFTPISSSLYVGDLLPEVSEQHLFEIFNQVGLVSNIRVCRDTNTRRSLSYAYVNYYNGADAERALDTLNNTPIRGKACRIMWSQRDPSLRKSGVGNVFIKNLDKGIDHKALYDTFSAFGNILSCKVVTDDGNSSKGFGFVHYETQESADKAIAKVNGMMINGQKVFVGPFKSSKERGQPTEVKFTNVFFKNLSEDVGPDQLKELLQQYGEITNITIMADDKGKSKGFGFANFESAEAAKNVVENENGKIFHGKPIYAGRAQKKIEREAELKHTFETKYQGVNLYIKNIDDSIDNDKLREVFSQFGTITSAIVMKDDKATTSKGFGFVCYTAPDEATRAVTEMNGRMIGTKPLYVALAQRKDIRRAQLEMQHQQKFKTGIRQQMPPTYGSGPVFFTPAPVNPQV

[8] = biological target: PGTG_09691 (Puccinia graminis) (UniProt E3KI53)

Substance: AUACANA [RNAcompete motif RNCMPT00505]
- binding signal (z-score (mean of top ten 7-mers)) [1]: 8.57

Substance: CGACGA [RNAcompete motif RNCMPT00514]
- binding signal (z-score (mean of top ten 7-mers)) [2]: 10.1

Substance: ACUACUA [RNAcompete motif RNCMPT00509]
- binding signal (z-score (mean of top ten 7-mers)) [3]: 8.74

Substance: AGGACGA [RNAcompete motif RNCMPT00503]
- binding signal (z-score (mean of top ten 7-mers)) [4]: 7.55

Substance: GAUAUU [RNAcompete motif RNCMPT00513]
- binding signal (z-score (mean of top ten 7-mers)) [5]: 13.9

Substance: AUAAGC [RNAcompete motif RNCMPT00628]
- binding signal (z-score (mean of top ten 7-mers)) (PRR3 (Homo sapiens)): 15.2

Substance: AGCACGG [RNAcompete motif RNCMPT00510]
- binding signal (z-score (mean of top ten 7-mers)) [6]: 14.1

Substance: AAAAAAA [RNAcompete motif RNCMPT00508]
- binding signal (z-score (mean of top ten 7-mers)) [7]: 14.8

Substance: UUGCAC [RNAcompete motif RNCMPT00482]
- binding signal (z-score (mean of top ten 7-mers)) [8]: 11.4
